# Source: IntAct's records for PubMed 20489725
# Columns and labels:
# [1] = molecular target: obsl1_human OBSL1 (UniProt O75147)
# [2] = molecular target: obscn_human OBSCN (UniProt Q5VST9)
# [3] = molecular target: obsl1_human OBSL1 (UniProt O75147); remark: listed apart in the source
# [4] = molecular target: obsl1_human OBSL1 (UniProt O75147); remark: listed apart in the source
# [5] = molecular target: obscn_human OBSCN (UniProt Q5VST9); remark: listed apart in the source
# [6] = molecular target: obsl1_human OBSL1 (UniProt O75147); remark: listed apart in the source
# [7] = molecular target: obscn_human OBSCN (UniProt Q5VST9); remark: listed apart in the source
# [8] = molecular target: obscn_human OBSCN (UniProt Q5VST9); remark: listed apart in the source
# obsl1_human OBSL1, sequence (O75147 whole entry): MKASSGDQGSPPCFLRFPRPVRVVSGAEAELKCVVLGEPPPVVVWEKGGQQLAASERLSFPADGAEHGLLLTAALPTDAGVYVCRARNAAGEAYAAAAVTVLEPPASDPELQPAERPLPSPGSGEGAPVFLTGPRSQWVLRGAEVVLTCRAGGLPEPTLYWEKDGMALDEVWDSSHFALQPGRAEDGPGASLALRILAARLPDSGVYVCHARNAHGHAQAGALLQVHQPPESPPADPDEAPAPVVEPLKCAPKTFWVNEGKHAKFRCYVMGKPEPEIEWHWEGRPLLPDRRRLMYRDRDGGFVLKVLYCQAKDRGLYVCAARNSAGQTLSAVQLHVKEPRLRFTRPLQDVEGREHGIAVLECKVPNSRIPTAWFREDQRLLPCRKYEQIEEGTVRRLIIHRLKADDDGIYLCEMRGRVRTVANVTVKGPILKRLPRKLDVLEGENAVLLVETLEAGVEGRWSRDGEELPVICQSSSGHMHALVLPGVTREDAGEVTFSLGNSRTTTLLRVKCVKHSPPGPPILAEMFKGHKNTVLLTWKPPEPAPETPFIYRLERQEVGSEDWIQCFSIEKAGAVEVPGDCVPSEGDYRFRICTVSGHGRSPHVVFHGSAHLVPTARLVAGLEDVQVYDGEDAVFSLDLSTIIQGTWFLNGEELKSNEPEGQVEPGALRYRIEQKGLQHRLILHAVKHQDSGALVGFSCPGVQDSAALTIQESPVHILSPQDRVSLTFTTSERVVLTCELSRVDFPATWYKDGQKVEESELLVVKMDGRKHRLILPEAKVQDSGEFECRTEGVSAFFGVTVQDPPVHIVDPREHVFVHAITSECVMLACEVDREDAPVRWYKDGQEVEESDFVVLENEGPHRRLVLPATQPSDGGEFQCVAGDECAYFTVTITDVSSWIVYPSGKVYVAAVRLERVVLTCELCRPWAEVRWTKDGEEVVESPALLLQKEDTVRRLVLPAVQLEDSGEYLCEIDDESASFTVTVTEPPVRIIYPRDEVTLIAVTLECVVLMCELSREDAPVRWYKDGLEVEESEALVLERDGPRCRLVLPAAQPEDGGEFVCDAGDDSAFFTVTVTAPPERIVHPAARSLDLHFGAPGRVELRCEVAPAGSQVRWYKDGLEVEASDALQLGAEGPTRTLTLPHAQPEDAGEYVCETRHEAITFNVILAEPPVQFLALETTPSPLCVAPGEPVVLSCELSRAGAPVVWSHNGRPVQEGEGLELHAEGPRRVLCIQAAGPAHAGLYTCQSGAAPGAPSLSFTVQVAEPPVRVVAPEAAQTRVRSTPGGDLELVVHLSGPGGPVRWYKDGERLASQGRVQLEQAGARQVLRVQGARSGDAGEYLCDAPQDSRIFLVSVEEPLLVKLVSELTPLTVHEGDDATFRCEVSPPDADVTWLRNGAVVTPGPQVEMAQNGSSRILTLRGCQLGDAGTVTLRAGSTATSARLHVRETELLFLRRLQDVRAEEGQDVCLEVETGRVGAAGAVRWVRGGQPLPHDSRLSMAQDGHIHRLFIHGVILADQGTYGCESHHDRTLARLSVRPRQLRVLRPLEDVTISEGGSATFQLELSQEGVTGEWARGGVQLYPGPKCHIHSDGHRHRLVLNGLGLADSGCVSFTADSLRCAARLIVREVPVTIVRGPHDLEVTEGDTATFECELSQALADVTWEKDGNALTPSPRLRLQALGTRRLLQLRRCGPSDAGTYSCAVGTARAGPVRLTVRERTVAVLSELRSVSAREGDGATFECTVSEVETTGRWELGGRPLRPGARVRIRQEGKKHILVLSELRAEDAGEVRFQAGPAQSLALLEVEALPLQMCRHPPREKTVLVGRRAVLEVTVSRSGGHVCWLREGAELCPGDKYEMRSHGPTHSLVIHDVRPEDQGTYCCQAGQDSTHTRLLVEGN
substance,measurement,setting,value
"Titin (Homo sapiens), Q8WZ42 R34348E",effect of a mutation on the interaction,[1],increasing interaction
same,effect of a mutation on the interaction,[2],decreasing interaction
"Titin (Homo sapiens), Q8WZ42 D34311S",effect of a mutation on the interaction,[3],decreasing interaction
"Titin (Homo sapiens), Q8WZ42 I34306N",effect of a mutation on the interaction,[4],decreasing interaction
same,effect of a mutation on the interaction,[5],decreasing interaction
"Titin (Homo sapiens), Q8WZ42 H34305P",effect of a mutation on the interaction,[6],decreasing interaction
same,effect of a mutation on the interaction,[7],decreasing interaction
"Titin (Homo sapiens), Q8WZ42 D34311R",effect of a mutation on the interaction,[8],decreasing interaction
